Test results published in the supplement of paper PMC10567573.

B1: TPD52L1 (parent)
chain: ISKKFGDMSYSIRHSISMPAMRNS

Variants of: B1
Experiment: protein stability index of a GFP-peptide fusion (GPS, HEK-293T) (PSI 1-6); higher = more stable
Settings: c terminus: a fixed tail appended
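Note: lentivirally expressed fusions sorted by FACS into six bins by GFP to DsRed ratio, PSI derived from sequencing read proportions per bin multiplied by bin number.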

Protein stability index of substitutions, site by site:
F5: N 2.48; R 2.45; C 2.26; H 2.72; P 2.85; M 2.29; D 2.46; G 3.29; S 2.67; Y 2.56; W 2.5; L 1.78; A 2.97; T 2.24; E 3.06; K 2.44; V 2.51; I 2.37; Q 2.78
M8: E 3.18; F 2.19; T 2.33; C 1.96; Y 1.54; P 3.46; V 2.38; S 2.4; N 2.88; Q 2.85; A 2.87; R 2.53; D 2.78; G 2.31; L 2.27; I 2.13; K 2.48; H 2.33; W 2.42
M18: P 2.64; F 1.8; D 2.88; V 1.83; T 2.58; N 2.28; Q 2.77; E 2.74; L 2.01; Y 1.87; I 2.53; A 2.64; C 2.21; R 2.34; S 2.05; G 2.42; W 1.7; H 2.6; K 2.31
P19: N 2.04; C 1.76; V 1.87; D 2.2; K 1.83; L 2.35; E 2.47; F 1.87; Q 2.33; I 2.6; Y 1.7; R 1.9; T 2.17; S 1.97; W 1.71; A 1.98; H 2.01; M 2.58; G 2.6
D7: T 1.54; N 1.67; Y 2.31; K 2.58; G 1.68; H 1.77; A 2.15; L 1.78; S 2.34; W 1.9; M 1.51; I 3.23; P 2.14; V 1.82; C 1.69; E 2.22; F 1.7; R 2.21; Q 2.04
I12: V 2.28; G 2.4; M 2.44; P 2.98; S 2.41; K 2.56; C 1.54; D 3.07; W 1.57; E 3.36; T 2.83; H 2.6; R 2.86; Y 2.37; L 2.71; A 2.55; N 3.1; F 2.63; Q 2.27
M21: H 2.46; P 2.54; G 2.4; F 2.31; A 2.82; Q 2.33; D 2.75; E 3.36; C 3.31; L 2.27; I 2.39; K 3.21; N 2.68
S9: L 1.42; Y 1.98; M 1.51; E 2.34; K 2.37; D 2.36; Q 2.31; T 2; W 2.69; G 2.27; H 2.38; N 2.36; V 2.03; R 2.22; I 2.59; C 1.88; A 2.23; P 2.03; F 2
H14: F 2.49; V 4.3; N 2.38; D 3.35; M 2.44; L 3.05; I 2.73; Y 1.7; Q 2.28; E 2.33; T 1.9; P 2.56; R 3.72; K 2.69; A 2.15; C 2.73; S 1.8; G 1.88
S11: R 2.24; P 2.58; F 1.91; H 2.41; C 1.88; W 1.67; Q 2.22; M 2.03; G 2.52; E 1.97; D 2.68; I 2.03; T 2.38; L 2.75; K 1.99; V 2.49; Y 2.06; N 2.74; A 2.51
K4: N 2.13; F 1.58; M 2.1; S 2.71; T 2.48; R 2.65; C 2.36; P 2.48; V 2.01; W 1.76; Y 2.71; D 2.47; H 2.57; G 2; Q 2.09; L 1.52; E 2.33; I 1.98
I16: T 2.67; F 1.61; E 3.25; S 2.77; H 2.36; L 2.46; W 1.97; K 2.98; N 2.61; V 2.32; C 2.02; Y 2.12; P 2.99; A 2.76; Q 2.72; G 2.51; D 2.6; R 2.81; M 2.9
Y10: I 2.23; S 2.84; E 2.88; L 1.88; F 2.01; Q 2.76; G 3.06; R 2.41; D 2.98; P 2.97; M 2.37; H 2.69; T 2.72; W 1.93; C 2.17; V 2.94; K 2.57; N 2.73; A 2.91
R13: C 1.78; V 2.6; S 2.02; Q 2.05; P 2.67; L 1.77; T 2.01; W 2.29; D 2.49; E 2.48; F 2.01; A 2.21; N 2.1; I 1.64; G 2.45; H 2.37; K 2.14; Y 1.45; M 1.89
S17: R 2.17; H 2.15; A 2.01; F 2.13; P 2.28; E 2.1; L 1.8; Q 2.48; N 2.25; T 2.11; V 2.12; G 2.42; M 2.17; D 2.36; C 1.92; K 2.13; I 2.03; W 1.27; Y 1.98
S15: F 1.42; N 2.37; C 2.23; T 1.88; R 2.24; D 1.92; E 3.28; L 1.83; H 1.85; I 1.87; P 2.43; A 2.23; M 1.91; V 1.32; G 2.38; K 2.31; W 2.22; Y 1.51; Q 2.5
A20: K 2.35; M 1.95; P 2.36; C 2.38; Q 2.26; W 2.13; S 2.04; Y 2.17; R 2.24; T 2.58; N 2.58; I 2.67; D 3.36; L 1.93; V 2.95; F 2.2; H 2.28; E 2.58; G 1.67
G6: P 2.75; R 2.35; T 2.62; V 2.15; N 2.15; A 1.65; K 1.74; W 2.38; Y 1.86; M 2.62; Q 2.19; C 1.98; E 2.31; F 1.97; I 1.6; S 2.24; L 1.45; H 1.88; D 2.28
